Target: BD–PTLΔC1 (PETAL LOSS with the C-terminal activation region removed, fused to the GAL4 binding domain) (Arabidopsis thaliana)
Assay: two-hybrid; quantitative: α-galactosidase activity of the MEL1 reporter in liquid cultures, triplicate technical assays; BD–PTLΔC1 bait

fold lower reporter (α-galactosidase) activation than AD–AKIN10: > 10 fold
B1: AD–AKIN11 (full-length AKIN11 fused to the GAL4 activation domain) (natural protein)
chain: MDHSSNRFGNNGVESILPNYKLGKTLGIGSFGKVKIAEHVVTGHKVAIKILNRRKIKNMEMEEKVRREIKILRLFMHPHIIRQYEVIETTSDIYVVMEYVKSGELFDYIVEKGRLQEDEARNFFQQIISGVEYCHRNMVVHRDLKPENLLLDSRCNIKIADFGLSNVMRDGHFLKTSCGSPNYAAPEVISGKLYAGPEVDVWSCGVILYALLCGTLPFDDENIPNLFKKIKGGIYTLPSHLSSEARDLIPRMLIVDPVKRITIPEIRQHRWFQTHLPRYLAVSPPDTVEQAKKINEEIVQEVVNMGFDRNQVLESLRNRTQNDATVTYYLLLDNRFRVPSGYLESEFQETTDSGSNPMRTPEAGASPVGHWIPAHVDHYGLGARSQVPVDRKWALGLQSHAHPREIMNEVLKALQELNVCWKKIGHYNMKCRWVPGLADGQNTMVNNQLHFRDESSIIEDDCAMTSPTVIKFELQLYKAREEKYLLDIQRVNGPQFLFLDLCAAFLTELRVI

Reference: PMC4986862
